Test results reported in patent publication US20100254965A1, “Adenosine Signaling in Diagnosis, Treatment, and Prevention of Priapism and Erectile Dysfunction” (BOARD OF REGENTS ,THE UNIVERSITY OF TEXAS SYSTEM, priority 2006, published 2010).
Entries after “also recorded” stand apart in the source; their conditions may differ.

Columns and labels:
ADA-deficient mice [1] = details: cited from earlier work
[2] = test system: corpus cavernosal strips (CCS); assay: Adenosine-induced relaxation of corpus cavernosal strips (CCS); assay type: cell-based, mouse; details: CCS of wild type mice, 1-10 μM, adenosine 100 μM
Experimental: FIG. 16. […] CCS of wild type mice were treated with different concentrations of adenosine with or without DCF (5 μM), a specific inhibitor of adenosine deaminase. Then the extent (mN) of force was monitored. (b) CCS of wild type mice were treated with 100 μM adenosine in the presence of different concentrations of DCF (0-100 uM). Then the extent of force was measured. Data are expressed as mean±SE. *p<0.05, adenosine treated versus the control, **p<0.05, DCF treated versus the adenosine treated.
FIG. 17. A2BR signaling is required for adenosine-mediated corpus cavernosal strips (CCS) relaxation. (a) CCS of wild type mice were treated with different concentrations of theophiline (1-10 μM) in the presence or absence of adenosine (100 μM). The force changes were measured by force transducer. Data are expressed as mean±SE. *p<0.05, adenosine treated versus the control, **p<0.05, theophiline treated versus the untreated, N=5. (b) CCS from wild type, A2AR, A1R A2BR and A3R-deficient mice were treated with different concentrations of adenosine. The relaxation was measured by force transducer. Data are expressed as mean±SE. *p<0.05, adenosine treated versus the wild type. (c) CCS were isolated from wild type and A2BR-deficient mice and treated with different concentrations of adenosine in the presence or absence of L-NAME (100 μM) or MRS1706 (10 μM). 10 min after treatment, cellular extracts were collected and cAMP levels were measured by using a commercial enzyme immunoassay kit (Amersham Pharmacia). Data are expressed as mean±SE. *p<0.05, adenosine treated versus the control without treatment; **p<0.05, adenosine treated with MRS1706 versus the adenosine treated alone; ***p<0.05, CCS of A2BR-deficient mice treated with adenosine versus the CCS of wild type mice treated with adenosine. N=6-7. (d) CCS of A2BR and ADA double deficient mice lost the hypersensitivity to nerve stimulation compared to ADA deficient mice.
(§1) Function experiments. The tunica albuginea was cut longitudinally, starting at the most proximal point of the corpus cavernosum (CC) toward the penile shaft, and the erectile tissue was partially dissected free from the tunica. One strip of tissue (0.3×0.3×3 mm) was obtained from each corpus cavernosum. The contractility of each isolated corpus cavernosum smooth muscle cells (CCSM) strip was measured using an isometric force transducer (AD Instrument Inc., Georgia, Vt., USA). The strip was mounted in a thermostatically controlled tissue bath containing aerated PSS (mM: 119 NaCl, 4.7 KCl, 24 NaHCO 3, 1.2 KH2PO4, 2.5 CaCl2, 1.2 MgSO4, 0.023 EDTA, and 11 glucose; 5 ml volume, 95% O2 and 5% CO2, 37° C.) and stretched to a resting tension of 0.1 mN. The contractile responses of the strips were analysed by adding 10 μM phenylephrine to the bath, and force changes were recorded in response to drug application and to electrical field stimulation. The particular electrical field stimulation parameters of 0-30V, 30 HZ with a pulse width of approximately 0.5 ms, are commonly used in the mice. […] The changes of cAMP and cGMP contents in CC strips were subsequently measured by commercial enzyme immunoassay kit (Amersham Pharmacia) (see below).

[3] = test system: multiple animal models, including humans; details: in vivo; cited from earlier work
[4] = test system: corpus cavernosal strips (CCS); assay: EFS-induced relaxation of phenylephrine-precontracted corpus cavernosal strips (CCS) of ADA+ and ADA-/- mice; assay type: cell-based, mouse
Source text: Prolonged penile erection in ADA-deficient mice is associated with increased corpus cavernosal relaxation in response to nerve stimulation. To determine if the potent and prolonged penile erection seen in ADA-deficient mice is associated with increased corpus cavernosal relaxation, we evaluated comparatively the relaxation of phenylephrine-precontracted isolated corpus cavernosal strips of ADA+ and ADA−/− mice in response to nerve stimulation^73,74. The corpus cavernosum is under sympathetic influence to maintain a contracted state resulting in a flaccid penis^3. To emulate this situation, contraction was induced by treatment with the α-adrenergic receptor agonist, phenylephrine (10 μM). The maximum phenylephrine-induced contraction was reached within 10-20 s after application to cavernosal strips from ADA+ and ADA−/− mice. Electrical field stimulation (EFS) is commonly used to stimulate the nerves that innervate the smooth muscle cells of the corpus cavernosum to mediate relaxation, corresponding to normal physiological penile erection^19,73,74,92,93. In our studies, EFS induced relaxation of corpus cavernosal strips from both ADA+ and ADA−/− mice in a voltage and frequency-dependent manner (FIGS. 14b and c). For ADA+ mice, relaxation increased incrementally over a standard voltage range with a maximal response at 20 V and 30 Hz.
Elevated adenosine in ADA-deficient mice contributes to increased corpus cavernosal strip relaxation. […]
Function experiments. […] The contractility of each isolated corpus cavernosum smooth muscle cells (CCSM) strip was measured using an isometric force transducer (AD Instrument Inc., Georgia, Vt., USA). […] The contractile responses of the strips were analysed by adding 10 μM phenylephrine to the bath, and force changes were recorded in response to drug application and to electrical field stimulation. […] The changes of cAMP and cGMP contents in CC strips were subsequently measured by commercial enzyme immunoassay kit (Amersham Pharmacia) (see below).

[5] = test system: corpus cavernosal strips (CCS); assay: EFS-induced relaxation of CCS of SCD transgenic mice and controls; assay type: cell-based, mouse
Experimental: FIG. 21. Priapic activity seen in SCD transgenic mice is dependent on elevated adenosine in penis via A2BR signaling. (a) Adenosine levels in the penis increased in SCD transgenic mice. Perchloric acid extracts of penile tissues from SCD transgenic mice and control mice were analyzed by HPLC to determine the levels of adenosine. The data are expressed as mean±SE. *p<0.005, (control n=5 and SCD transgenic mice n=6), SCD transgenic mice versus the controls. (b) Increased corpus cavernosum strips (CCS) relaxation by electrical field stimulation (EFS) in SCD transgenic mice. Relaxation effect of EFS with different voltages (0-30V) at 30 Hz and 0.5 ms pulse width, alternating polarity between pulses, in 10 μM phenylephrine-precontracted CCS from the controls (n=5) and SCD transgenic mice (n=5). (c-e) Prolonged penile erection seen in SCD transgenic mice is due to high levels of adenosine in the penis via A2BR signaling. Average EFS-induced relaxation from the PE-precontracted CC strips of the controls and SCD transgenic mice treated without or with PEG-ADA, MRS1706 or ZM241389. EFS-induced force change (c), duration of relaxation by EFS (d) and area under basal line (e) were representative of the CCS relaxation. (n=5 for the controls and n=5 for SCD transgenic mice with or without PEG-ADA, MRS1706 or ZM241389 treatment, respectively). Data are given as means±SE. *p<0.05, SCD transgenic mice versus the controls, **p<0.05, CCS of […] with PEG-ADA, MRS1706 or ZM241389 treatment versus CCS of SCD transgenic mice without treatment; ***p<0.05, CCS of the control mice with MRS1706 and/or L-NAME treatment versus CCS of the control mice without treatment.
Sickle cell disease (SCD) transgenic mice, expressing exclusively human sickle hemoglobin, were also used. These mice were age-matched, adult male homozygotes [SS^−/−, consisting of a transgene and two targeted gene deletions: (Tg (Hu-miniLCR alpha 1G gamma A gamma delta beta s) Hba0//Hba0 Hbb0//Hbb00) and heterozygotes (SS^−/+, SS^−/− genotype except Hbb0//Hbb+), developed on a mixed-strain background (mouse strains FVB/N, 129, DBA/2, C57BL/6, Black Swiss)^94,95.
as §1

ADA-deficient mice [6] = assay: Spontaneous prolonged penile erection (priapic activity) in ADA-deficient mice, PEG-ADA enzyme therapy; assay type: in vivo, mouse; details: intraperitoneal injection of PEG-ADA
Experimental: The ADA-deficient mice were injected with PEG-ADA weekly. During the course of maintaining our production colony of ADA-deficient mice, we noticed that ADA-deficient male breeders (kept alive by enzyme therapy) frequently presented with prolonged penile erections lasting up to 72 hours (FIG. 1a). The penile erections were typically noticed at the time of the scheduled weekly PEG-ADA injection. We know from earlier studies that the lowest levels of circulating adenosine are achieved during the first day following the PEG-ADA injection^21,28. Adenosine levels rise continually during the subsequent days preceding the next PEG-ADA injection. Thus, adenosine levels are highest just prior to the scheduled weekly injection of PEG-ADA when the priapism was observed^21,28. Priapic erections were never observed in wild type male mice (FIG. 14a).
Prolonged penile erection in ADA-deficient mice depends on pronounced accumulation of adenosine in the penis. We hypothesized that the increased penile erection and corpus cavernosal smooth muscle relaxation in response to nerve stimulation in ADA-deficient mice were due to elevated concentrations of adenosine. To test this hypothesis, adenosine levels were quantified in penile tissue from ADA^+ and ADA^−/− mice^21,23,28. […]

CCCn1c(=O)c2[nH]c(-c3cnn(Cc4cccc(C(F)(F)F)c4)c3)nc2n(CC)c1=O [CVT-6883]
adenosine-mediated pulmonary fibrosis and enlargement of alveolar airspaces (ADA-deficient mice [1]): significantly reduces adenosine-mediated pulmonary fibrosis and enlargement of alveolar airspaces

Cn1c(=O)c2[nH]cnc2n(C)c1=O [theophyline, theophylline]
inhibition of adenosine-mediated corpus cavernosal strip relaxation [2]: significantly inhibited adenosine-mediated corpus cavernosal strip relaxation in a dosage dependent manner | adenosine-induced penile tumescence [3]: inhibited adenosine-induced penile tumescence

CNC[C@H](O)c1cccc(O)c1 [phenylephrine]
time to maximum phenylephrine-induced contraction ([4]; 10 μM, cavernosal strips from ADA+ and ADA-/- mice): 10 to 20 s

B1: PEG-ADA: purified bovine ADA covalently modified with activated polyethylene glycol; modified form of ADA used for enzyme therapy (protein, UniProt P56658 2-363, looked up)
Adenosine deaminase: AQTPAFNKPKVELHVHLDGAIKPETILYYGRKRGIALPADTPEELQNIIGMDKPLSLPEFLAKFDYYMPAIAGCREAVKRIAYEFVEMKAKDGVVYVEVRYSPHLLANSKVEPIPWNQAEGDLTPDEVVSLVNQGLQEGERDFGVKVRSILCCMRHQPSWSSEVVELCKKYREQTVVAIDLAGDETIEGSSLFPGHVKAYAEAVKSGVHRTVHAGEVGSANVVKEAVDTLKTERLGHGYHTLEDATLYNRLRQENMHFEVCPWSSYLTGAWKPDTEHPVVRFKNDQVNYSLNTDDPLIFKSTLDTDYQMTKNEMGFTEEEFKRLNINAAKSSFLPEDEKKELLDLLYKAYGMPSPASAEQCL
modifications: PEG
notes: modified form of ADA used for enzyme therapy
force, duration and area under baseline of EFS-induced relaxation ([5]; CCS of SCD transgenic mice versus untreated CCS): significantly reduced the force, duration and area under baseline | force, duration and area under baseline of EFS-induced relaxation ([5]; CCS of the controls): decreased the force, duration and area under baseline | pulmonary inflammation and fibrosis (ADA-deficient mice [1]; lowering adenosine by PEG-ADA therapy): can prevent and even reverse aspects of pulmonary inflammation and fibrosis | force, duration and area under baseline of EFS-induced relaxation ([4]; CCS from ADA-/- mice, EFS 5V and 30 Hz for 60 s, versus untreated CCS): significantly reduced the force, duration and area under baseline | EFS-induced CCS relaxation ([4]; CCS of control (ADA+) mice, EFS 5V and 30 Hz): decreased the EFS-induced CCS relaxation | prolonged penile erection / priapic activity (ADA-deficient mice [6]): quickly corrected; also recorded: quickly reverses the priapic activity; also recorded: relieved the prolonged penile erection
